# Results: patent US20090208453A1 (NURON BIOTECH, published 2009)
# B1: Bar 25 protein (recombinant human interferon beta-1b, C17S IFN-beta-1b, refolded under high pressure) (ligand)
# chain: SYNLLGFLQRSSNFQSQKLLWQLNGRLEYCLKDRMNFDIPEEIKQLQQFQKEDAALTIYEMLQNIFAIFRQDSSSTGWNETIVENLLANVYHQINHLKTVLEEKLEKEDFTRGKLMSSLHLKRYYGRILHYLKAKEYSHCAWTIVRVEILRNFYFINRLTGYLRN
# notes: Non-glycosylated, expressed in E. coli; It was tested untreated and after RP-HPLC/SEC-HPLC isolation; The research-grade material was partially deamidated; also called rhIFN beta-1b; rhIFN-beta1b
# Molecular target: T1, recombinant human interferon-alpha/beta R2 receptor Fc chimera (R&D Systems, Product 4015-AB) (human, UniProt P48551 27-243)
# T1 construct: Bought reagent, coated onto ELISA plates; also called rhIFN-R2 Fc; Fc part of the bought chimera not given
# T1 sequence (looked up): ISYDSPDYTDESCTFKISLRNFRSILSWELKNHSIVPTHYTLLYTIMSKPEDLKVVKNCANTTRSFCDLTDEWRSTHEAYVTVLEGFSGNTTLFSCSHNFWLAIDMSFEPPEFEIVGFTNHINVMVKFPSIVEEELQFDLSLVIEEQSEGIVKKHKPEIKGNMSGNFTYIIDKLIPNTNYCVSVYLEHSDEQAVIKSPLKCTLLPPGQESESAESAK
# Assay: Receptor binding (competition): displacement of 125I-IFN-alpha from plate-coated rhIFN-R2 Fc; untreated and RP-HPLC-purified samples
# Procedure: Receptor binding competition assays were performed using purified rhIFN-beta1b from Bar 25 protein and BETASERON, and unprocessed Bar 25 protein and BETASERON. The assay was performed using the recombinant human interferon-alpha/beta R2 receptor Fc (rhIFN-R2 Fc) chimera (R&D Systems, Product 4015-AB). This receptor binds both interferon-alpha and interferon-beta. ¹²⁵I-human interferon-alpha (¹²⁵I-IFN-alpha) was used as the competing reagent to avoid potential effects of radiolabeling on the rhIFN-beta1b products. rhIFN-R2 Fc was coated onto ELISA plates and ¹²⁵I-IFN-alpha was added at a fixed concentration to each well. […] Unlabeled IFN-alpha was used as a control. The amount of ¹²⁵I-IFN-alpha remaining bound to rhIFN-R2 Fc after the competition was measured and plotted as a function of the rhIFN-beta1b concentration. The resulting curves for each product and purified rhIFN-beta1b sample were compared.
binder,measurement,value
B1,binding result,binds
